T1: mouse SIRPA expressed on CHO cells (mouse, UniProt P97797 32-513)
T1 construct: also called CHO-mSIRPA; CHO-MuSIRPα
T1 sequence: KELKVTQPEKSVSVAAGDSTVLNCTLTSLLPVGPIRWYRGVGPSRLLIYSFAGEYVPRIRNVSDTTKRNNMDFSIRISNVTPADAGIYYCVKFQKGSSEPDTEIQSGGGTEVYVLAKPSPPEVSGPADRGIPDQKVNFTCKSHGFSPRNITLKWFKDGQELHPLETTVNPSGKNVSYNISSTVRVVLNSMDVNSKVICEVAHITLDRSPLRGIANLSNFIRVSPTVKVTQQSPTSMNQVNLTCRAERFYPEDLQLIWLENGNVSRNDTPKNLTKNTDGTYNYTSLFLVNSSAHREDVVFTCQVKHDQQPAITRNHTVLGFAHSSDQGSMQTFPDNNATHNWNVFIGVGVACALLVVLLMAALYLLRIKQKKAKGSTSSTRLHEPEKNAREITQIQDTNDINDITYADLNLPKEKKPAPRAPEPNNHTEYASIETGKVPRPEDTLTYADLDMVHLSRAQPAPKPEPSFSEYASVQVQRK

B1: 3F9 (antibody, IgG1, V domains shown)
VH: EVKLVESGGGLVKPGGSLKLSCAASGFTFSSYAMSWVRQTPEKRLEWVATISDYGGSYTYYPDSVKGRFTISRDNAKYTLYLQMSSLRSEDTALYYCARPPYDDYYGGFAYWGQGTLVTVSA
VL: DIVLTQSPASLAVSLGQRATISCRASKSVSSSGYSYMHWYQQKPGQPPKLLIYLASNLESGVPARFSGSGSGTDFTLNIHPVEEEDAATYYCQHNRELPCTFGGGTKLEIK
notes: also called anti-SIRPA antibody 3F9; glycosylated 3F9
B2: 9C2 (antibody, IgG1, V domains shown)
VH: EFQLQQSGAELVKPGASVKISCKASGYSLTGYNMNWVKQSRGKSLEWIGNINPHYGSSTYNQNFKDKATLTVDKSSSAAYMQFNSLTSEDSAVYYCAREGYDGVFDYWGQGTTLTVSS
VL: QIVLSQSPAILSASPGEKVTMTCRASSSVSYMHWYQQKPGSSPKPWIYVTSNLASGVPTRFSGSGSGTSYSLTISRVEAEDAATYYCQQWSSNPRTFGGGTKLEIK
notes: also called anti-SIRPA antibody 9C2; 9C2-DyLight 650
B3: deglycosylated 3F9 (antibody, IgG1, V domains shown)
VH: B1 VH
VL: B1 VL
modifications: Fc-linked glycan removed with EndoS (on the heavy chain constant region, which is not given)
notes: also called deglycosylated 3F9 variant; deglycosylated form of 3F9

Columns and labels:
[1] = target: T1, mouse SIRPA expressed on CHO cells; assay: flow cytometry on CHO-MuSIRPα cells
[2] = target: T2, human SIRPA expressed on cells (human, UniProt P78324 31-504); assay: flow cytometry on CHO-HuSIRPα cells
Procedure: Initial characterization of SIRPA antibodies involved screening their ability to bind the human receptor ectopically expressed on the rodent Chinese hamster ovary cell line, henceforth referred to as CHO-huSIRPA, followed by screening on primary human macrophages. Cells were harvested, plated at 10⁵ cells/well in a 96-well plate, washed, and incubated in 100 μl FACS buffer containing Fc blocking reagent and […] of indicated monoclonal antibody. Cells were then washed twice and incubated in FACS buffer containing APC-conjugated secondary antibody diluted 1:200 for 30 minutes on ice. Cells were washed twice in cold FACS buffer and acquired on a BD FACS Canto. Data analysis and calculation of mean fluorescence intensity (MFI) values or % positive cells was performed with FlowJo (TreeStar) software version 10.0.7.

[3] = target: T2, human SIRPA expressed on cells; assay: cell-based or functional assay
[4] = target: T3, recombinant soluble human SIRPA antigen, His-tagged (human, UniProt P78324 31-373); assay: SPR, Biacore T200, antibody captured by anti-mouse IgG on CM5, soluble human SIRPA in solution, 1:1 fit
T3 construct: also called His-tagged soluble HuSIRPA protein; monomeric human SIRPA antigen; not shown: His tag
Procedure: Binding studies were performed using a Biacore T200 (GE). An anti-mouse IgG capture antibody was amine coupled to a CM5 sensor chip using standard NHS/EDC activation. SIRPA antibodies were diluted to 50 nM in 1×HBS-EP+ running buffer and captured onto sensor chip surface. Serial dilutions of recombinant soluble human SIRPA antigen were injected over captured SIRPA antibodies to record sensorgram traces. Data were processed by subtracting RU values from the reference cell as well as the buffer injections.

[5] = target: T2, human SIRPA expressed on cells; assay: flow cytometry titration on CHO-huSIRPA cells at 4 C
Procedure: Serial dilutions of monoclonal antibodies were added to 10⁵ CHO-huSIRPA cells and allowed to achieve binding equilibrium at 4° C. After addition of fluorescently labeled secondary antibody and brief washing steps, MFI values as a function of titrated antibody concentration was recorded via FACS analysis (FIG. 3D). Curves were fit using nonlinear regression analysis with Graphpad Prism 6 software.

[6] = target: T4, human SIRPA-DAP12 chimera expressed on BWZ/NFAT-luciferase reporter cells (human, UniProt O43914 62-113, limits assumed); assay: flow cytometry on BWZ-Human SIRPA cells, titrated antibody detected with anti-mouse IgG APC (Relative MFI)
T4 construct: domain: intracellular ITAM motif; The intracellular ITIM motif of SIRPA was substituted with the intracellular ITAM motif of DAP12; also called BWZ-huSIRPA; BWZ-HuSIRPA

[7] = target: T1, mouse SIRPA expressed on CHO cells; assay: flow cytometry on CHO-mSIRPA cells

T2 sequence (P78324 31-504): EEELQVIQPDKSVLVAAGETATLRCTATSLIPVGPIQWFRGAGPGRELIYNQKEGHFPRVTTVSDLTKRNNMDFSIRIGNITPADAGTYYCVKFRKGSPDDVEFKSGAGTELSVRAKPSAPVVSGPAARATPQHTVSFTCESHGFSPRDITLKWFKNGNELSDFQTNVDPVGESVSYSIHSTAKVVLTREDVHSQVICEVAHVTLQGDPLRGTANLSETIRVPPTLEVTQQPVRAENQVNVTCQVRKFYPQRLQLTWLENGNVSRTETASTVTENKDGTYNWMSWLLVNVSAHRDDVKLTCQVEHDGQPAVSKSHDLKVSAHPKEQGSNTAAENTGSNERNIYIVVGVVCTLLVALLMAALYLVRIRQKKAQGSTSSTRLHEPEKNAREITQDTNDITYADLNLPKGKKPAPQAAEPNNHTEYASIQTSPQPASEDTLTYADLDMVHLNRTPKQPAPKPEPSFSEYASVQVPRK
T3 sequence (P78324 31-373 limits assumed): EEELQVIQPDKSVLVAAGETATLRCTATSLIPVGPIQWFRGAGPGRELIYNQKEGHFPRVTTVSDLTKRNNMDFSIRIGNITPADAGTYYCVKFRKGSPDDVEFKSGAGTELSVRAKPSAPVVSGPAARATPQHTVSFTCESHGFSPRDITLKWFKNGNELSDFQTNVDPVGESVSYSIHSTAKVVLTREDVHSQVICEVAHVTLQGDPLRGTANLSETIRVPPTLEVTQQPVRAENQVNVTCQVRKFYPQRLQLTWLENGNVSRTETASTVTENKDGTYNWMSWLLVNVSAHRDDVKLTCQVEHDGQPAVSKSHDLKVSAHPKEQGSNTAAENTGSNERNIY

Row | Molecule | MFI, fold over background (fold over background) [1] | MFI, fold over background (fold over background) [2] | phagocytic activity of treated macrophages (FIG. 8C) [3] [fold] | phagocytosis of labeled Raji cells: CD14+/pHrodo+ macrophages over isotype-treated macrophages [3] [fold] | Kd [4] [nM] | koff [4] [s⁻¹] | kon [4] [M⁻¹ s⁻¹] | EC50 [5] [nM] | EC50 (read off the curve) [6] [nM] | MFI, fold over background [1] [fold over background] | binding result [7] | MFI, fold over background [2] [fold over background]
1 | mouse IgG1 isotype control (antibody) | 1 | 1 |  |  |  |  |  |  |  |  |  | 
2 | B1 |  |  | 2 | 2.5 | 10 | 0.00057 | 55000 | 2.6 | ~1 | 0.998 | no binding (tested: 1.0 pg/ml (so in the source)) | 137
3 | B2 |  |  |  | 1.5 | 80 | 0.0045 | 54000 | 1.6 |  | 0.981 | no binding (tested: 1.0 pg/ml (so in the source)) | 128
4 | B3 |  |  |  |  |  |  |  |  | ~1 |  |  | 
